US10370443B2, “Method of treating autoimmune disease by administering antibodies to interleukin-6” (Fountain Biopharma Inc., priority 2012, dated 2019)
Positions count from the first letter of the chain named. Entries after “also recorded” stand apart in the source; their conditions may differ.

B1: 1-4-62: parent fully-human anti-IL6 antibody clone; HC CDR3 SEQ ID NO: 6, LC CDR3 SEQ ID NO: 13 (antibody, V domains shown)
VH: EVQLVESGPALVKPTQTLTLTCTFSGFSLSTGGMSVSWIRQPPGKALEWLARIDWDDDKFYTPSLKTRLTISRDTSKNQVVLIMTNMDPVDTATYYCARMHIDDSNGYYSDAFHIWGQGTMVTVSS
VL: EIVLTQSPATLSVSPGERVTLSCRDSQSVSSTSLAWYQQKSGQAPRLLIYDTSNRATGIPARFSGGGSGTDFTLTISSLEPEDFAVYYCLVRNNWPPRFTFGQGTKVEIK
B2: Ag1-4-6: affinity-matured fully-human anti-IL6 antibody; HC CDR3 SEQ ID NO: 6, LC CDR3 SEQ ID NO: 15 (antibody, V domains shown)
VH: B1 VH
VL: B1 VL with L90S, V91F, R92V, N93S, N94R, W95P, P96Y
B3: HAg1T-3-10: affinity-matured fully-human anti-IL6 antibody; HC CDR3 SEQ ID NO: 16, LC CDR3 SEQ ID NO: 15 (antibody, V domains shown)
VH: B1 VH with Y109F
VL: B1 VL with L90S, V91F, R92V, N93S, N94R, W95P, P96Y

Experiments:
BxPC-3 tumor = test: Xenograft human pancreatic tumor model; assay type: in vivo, mice; conditions: BxPC-3 tumor sections, FIGS. 6E and 6F
Procedure: (iv) Xenograft Human Pancreatic Tumor Model Human pancreatic tumor cells BxPC-3 and MiaPaCa cells were re-suspended in PBS and injected subcutaneously (s.c.) (5×10^6 cells, total volume 0.15 mL) into the right flank of mice. […] Mice body weights and the tumor sizes were measured twice a week. Tumor sizes were measured using a caliper, and the tumor volume was calculated by […]. After the experiment, all mice were sacrificed, mice blood samples were collected and the tumor masses were removed and weighted. The differences in mean tumor volume and tumor weight were evaluated by Student's t-test. […] Results (i) FB704 Inhibits In Vivo Angiogenesis in a Matrigel Assay
FB704 enhanced the anti-tumor activity of Oxaliplatin or Gemcitabine in a human pancreatic cancer model.

[1] = system: human prostate cancer PC-3 cell; test: Prostate PC3 tumor metastasis and cachexia, intrasplenic implantation model; conditions: for total body weights (cachexia): day 31 after PC-3 implantation, 20 mg/kg i.v. twice a week, P<0.01; for symptom-free survival of PC3 tumor-bearing mice: repetitive injections, Kaplan-Meier, FIG. 5B
Procedure: The body weights of those mice were measured twice a week.
All mice were then euthanized by CO2 asphyxiation and body weights were determined. Primary tumors in the spleen and liver were excised, photographed, and weighed. Organ index was expressed as milligram organ per gram mouse. Mean+SD were calculated using Student's t-test. The survival assay was used Kaplan-Meier analysis. Paraffin-embedded or frozen section of tumor masses were prepared and stained by anti-CD31 and Ki-67 plus Hematoxylin staining for analysis.
To verify the efficacy of FB704 on cancer induced cachexia and metastasis, mice were implanted with human prostate cancer PC-3 cell (1.0×10^6 per mouse) by intrasplenic injection. On day 1, the mice were randomized into 4 groups (n=12-15). High (20 mg/kg) and low (5 mg/kg) dose of FB704, positive control Actemra (20 mg/kg) and PBS were administered via i.v. (intravenous) injection twice a week.

[2] = system: IL6-induced phosphorylated STAT3 in U266 cells; test: Cell signaling transduction assay (P-STAT3 western blot); assay type: cell-based, human; conditions: for STAT3 phosphorylation inhibition percentage of control: rhIL6; for suppression of phosphorylated-STAT3 signaling: western blot, FIG. 1A/1B
Procedure: U266 cells (1×10^6/ml) were washed twice with serum-free RPMI 1640 and cultured for 2 h in the absence of fetal bovine serum and growth factors. Cells were stimulated with rhIL6 (5 ng/ml) for 30 min at 37° C. and then treated with or without anti-IL6 antibodies. Cells were washed with ice-cold PBS, and then lysed in RIPA buffer (Thermo) supplemented with protease and phosphatase inhibitor (Roche). Western blot analysis was performed using anti-pSTAT3, and anti-STAT3 (Cell Signaling Technology) antibodies. After incubating with HRP-labeled goat anti-rabbit (Thermo) or HRP-labeled goat anti-mouse antibody (Thermo), the membranes were developed by enhanced chemiluminescence (GE Healthcare).
Human multiple myeloma U266 cells were used to examine the effect of anti-IL6 antibodies on IL6-induced signaling cascade. U266 cells were cultured in the presence or absent of antibodies, together with rhIL6. After 30 minutes, whole cell lysates were collected and western blot analysis was performed to examine phosphorylated STAT3 protein (P-STAT3), which is a major transcription factor involved in the IL6 signaling pathway. […] (FIGS. 1A and 1B).

recombinant human IL6 = target: T1, recombinant human IL6 (Homo sapiens, UniProt P05231); test: BIAcore analysis of IgG binding affinity; conditions: for Ka: association rate constant, captured IgG, BIAcore T200; for Kd: dissociation rate constant
T1 construct: purchased R&D Systems
T1 sequence (P05231 30-212): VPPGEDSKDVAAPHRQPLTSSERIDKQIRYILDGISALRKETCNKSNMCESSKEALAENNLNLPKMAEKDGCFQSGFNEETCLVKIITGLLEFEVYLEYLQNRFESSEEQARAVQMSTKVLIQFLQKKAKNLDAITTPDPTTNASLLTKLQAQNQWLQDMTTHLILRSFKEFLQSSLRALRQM
Procedure: IgG binding affinity was measured by using human antibody capture kit (GE healthcare) in BIAcore T200 system (GE healthcare). The mouse anti-human IgG was immobilized on a CMS sensor chip via amine coupling. Approximately 700 RU of purified anti-IL6 IgG in HBS-EP+ buffer were captured onto the immobilized surface. The recombinant human IL6 (R&D Systems) at concentrations ranging from 25.6 nM to 0.4 nM in HBS-EP+ buffer was injected for 2 minutes using a flow rate of 30 μl/min. Dissociation of bound antigen in HBS^−EP^+ buffer flow was followed for 7 minutes. The surfaces IgG were regenerated after each cycle using regeneration solution (3M MgCl2). The dissociation constant (KD) was calculated as kd/ka.

[3] = system: hIL6-induced angiogenesis; test: Matrigel angiogenesis assay; assay type: in vivo, mice; conditions: listed as FB704
Procedure: Liquid matrigel (BD Biosciences) was maintained at 4° C. hIL6 recombinant protein (R&D Systems) was added to Matrigel to a final concentration of 100 ng/0.5 ml. […] Then, the mice were treated with anti-IL6 IgG antibodies or a control IgG antibody through intravenous injection. On day 6, the mice were euthanized by CO2 asphyxiation. Matrigel plugs were removed, weighed and photographed. To measure hemoglobin levels, the Matrigel plug was lysed with a lysis buffer (1% SDS, 0.5% Triton in PBS) overnight at 4° C. The hemoglobin contents of the plugs were quantitated using Drabkin's reagent (Sigma). The concentrations of hemoglobin in the plugs were determined using a standard curve of bovine hemoglobin (Sigma). Hemoglobin contents were indicated as micrograms hemoglobin per gram Matrigel. Mean+SD were calculated using the Student's unpaired t test; p<0.05 was considered as statistically significant.
The anti-angiogenic ability of FB704 was examined in an in vivo matrigel model as described herein. Six days after the treatment, the mice were scarified mice and hemoglobin concentrations were measured. […] (FIG. 4B).

[4] = system: human IL6 and other cytokines (IL6 family and non-IL6 family); test: Specificity analysis ELISA on coated cytokines; assay type: binding; conditions: FIGS. 3A and 3B
Procedure: Plates were coated with recombinant human IL3, IL4, IL5, IL6, IL11, IL17A, CNTF, OSM, IGF-1 (R&D Systems), IL2, FGF (Prospec), VEGF, TNF-α, EGF (Peprotech) at 2 μg/ml in 0.1M NaHCO3 buffer at 4° C. overnight. After being washed by PBS, the wells were blocked with 1% (w/v) BSA in PBS at RT for 1 h. Purified anti-IL6 antibodies in four-fold serial dilutions at a starting concentration of 2 μg/ml were placed into the wells and incubated at RT for 1 h. The plate was washed in PBS containing 0.1% (w/v) Tween 20 and then probed with HRP-labeled goat anti-human IgG (KPL) diluted 1:10,000 in 1% BSA-PBS for 40 min at RT. The plate was again washed and a TMB substrate solution was added to develop color. Stop solution (1M H2SO4) was then added and the absorption at 450 nm quantitated using VERSA max (Molecular Devices).
An ELISA assay as described herein was performed to confirm the binding specificity of high-affinity anti-IL6 antibodies described herein. Briefly, plates were coated with different cytokines as indicated in FIG. 3A (IL6 family cytokines) and FIG. 3B (non-IL6 family cytokines) and the binding activities of the FB704 antibody clone (i.e. Ag1-4-6) to those cytokines were examined.

[5] = system: IL6 plus sIL6R induced MCP-1 and sICAM-1 in HUVECs; test: MCP-1 and sICAM-1 production in HUVEC cells (ELISA); assay type: cell-based, human; conditions: 24 h; for inhibition of IL6+sIL6R induced MCP-1 secretion: FIG. 2A; for inhibition of sICAM-1 production: FIG. 2B
Procedure: To examine the effectiveness of the anti-IL6 antibodies described herein in treating rheumatoid arthritis (RA), monocyte chemotactic protein-1 (MCP-1) and sICAM-1 secretion by Human Umbilical Vein Endothelial Cells (HUVECs) were measured after antibody treatment as follows. The HUVEC cells were plated in a 48-well plate at a density of 2×10^5 cells/ml. The cells were treated with a combination of recombinant human IL6, IL6 receptor-α (R&D systems) with or without anti-IL6 antibodies at various concentrations or the control IgG antibody at 37° C. for 24 h. Cell free culture supernatants were collected and analysis for MCP-1 and sICAM-1 by ELISA (RayBiotech)

[6] = system: IL6-induced MCP-1 in PBMC cells; test: MCP-1 production in human PBMC; assay type: cell-based; conditions: PBMC of five healthy donors, IL6 100 ng/ml, 24 h, FIG. 7B
Procedure: Further, PBMCs were isolated from five healthy donors. The cells (5×10^5 cells/250 μl/well) were cultured with IL6 (100 ng/ml) for 24 h in a 96-well U-bottomed culture plates (Corning, Corning, N.Y.) containing RPMI1640 in the presence of anti-IL6 antibodies at different concentrations. The levels of MCP-1 in the supernatant were measured by MCP-1 ELISA kits (e Bioscience).

| Molecule | Ki-67 positive cell rate (BxPC-3 tumor) | total body weights (cachexia) [1] | dissociation rate constants (kd) (recombinant human IL6) | Ka (recombinant human IL6) | Kd (recombinant human IL6) | suppression of phosphorylated-STAT3 signaling [2] | inhibition of IL6+sIL6R induced MCP-1 secretion [5] | inhibition of sICAM-1 production [5] | suppression of MCP-1 production [6] | other results |
| --- | --- | --- | --- | --- | --- | --- | --- | --- | --- | --- |
| O=C1[O][Pt]2([NH][C@@H]3CCCC[C@H]3[NH]2)[O]C1=O [Oxaliplatin, reference compound] | 14% |  |  |  |  |  |  |  |  |  |
| Actemra: anti-IL6 receptor humanized antibody, FDA-approved for rheumatoid arthritis, used as a control [reference compound] |  | remained stable |  |  |  |  |  |  |  | symptom-free survival of PC3 tumor-bearing mice [1]: significantly prolonged symptom-free survival; STAT3 phosphorylation inhibition percentage of control ([2]; Ab concentration 0.05 μg/ml): 0%; STAT3 phosphorylation inhibition percentage of control ([2]; Ab concentration 0.5 μg/ml): 17% |
| B1 |  |  | 0.00166 s⁻¹ | 438000 M⁻¹ s⁻¹ | 0.00166 s⁻¹ |  |  |  |  |  |
| B2 | 16% | remained stable |  | 1.61e+06 M⁻¹ s⁻¹ | 0.00121 s⁻¹ | at a level greater than Actemra; also recorded: suppressed the STAT3 signaling at a much greater level as compared to control antibody Actemra | in a dose dependent manner; also recorded: inhibited | in a dose dependent manner; also recorded: at a level greater than Actemra | inhibited MCP-1 production in a dose dependent manner | tumor cell infiltration in liver ([1]; gross necropsy, FIG. 5C): moderate tumor cell infiltration; vessel density / CD31 staining on tumor sections ([1]; immunohistochemistry, vs PBS, FIGS. 5D and 5E): significantly decreased; symptom-free survival of PC3 tumor-bearing mice ([1]; listed as FB704): significantly prolonged symptom-free survival; also recorded: significantly better efficacy than Actemra; also recorded: significant better efficacy than Actemra; inhibition of IL6-induced angiogenesis in matrigel plugs ([3]; 6 days after treatment, FIG. 4A): observable difference in color and vessel density; also recorded: inhibited angiogenesis; hemoglobin concentrations in matrigel plugs ([3]; day 6, compared with hIL6, FIG. 4B): significantly reduced the hemoglobin concentrations; also recorded: significantly changed the hemoglobin concentrations; binding activity to coated cytokines (specificity) [4]: high binding activity to human IL6 protein but not to other cytokines |
| B3 |  |  | 0.0006 s⁻¹ | 2.24e+06 M⁻¹ s⁻¹ | 0.0006 s⁻¹ | at a level greater than Actemra | in a dose dependent manner | in a dose dependent manner | inhibited MCP-1 production in a dose dependent manner | suppression of phosphorylated-STAT3 signaling ([2]; listed as HAgT1-3-10): suppressed the STAT3 signaling at a much greater level as compared to control antibody Actemra; inhibition of IL6+sIL6R induced MCP-1 secretion ([5]; listed as Hag1T-3-10): inhibited; inhibition of sICAM-1 production ([5]; listed as Hag1T-3-10): at a level greater than Actemra |
